From US20190353661A1

T1: Dust mite allergen Der p 2 (dust mite (Dermatophagoides pteronyssinus)) (UniProt P49278)
T1 sequence (looked up): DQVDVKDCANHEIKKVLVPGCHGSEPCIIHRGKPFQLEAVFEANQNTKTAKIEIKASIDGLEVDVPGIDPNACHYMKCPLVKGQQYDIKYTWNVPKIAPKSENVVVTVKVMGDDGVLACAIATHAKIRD

B1: Human IgE mAb 2G1 (antibody)
VH: EFQLVESGGGLIQPGGSLRLSCAGSGFTVTTNYMAWVRQAPGKGLEWVSTIYSAGSTFYADSVKGRFTISGDNSKNTLYLQMGSLRAEDTAVYYCARENPAQDAFDIWAKDTMVTVSSASF
VL: EFSYELTQPLSVSVALGQTARITCGGNNIGSKNVHWYQQKPGLAPVLVIYRDSNRPSGIPARFSGSSSGNTATLTISSAQAGDEADYYCHVWDTSTVVFGGGTKLTVLSLPKAAPSVTLFPPSSEELQANKATLVCLISDFYPGAVTVAWKADSSPVKAGVETTTPSKQSNNKYAASSYLSLTPEQWKSHKSYSCQVTHEGSTVEKTVAPTECS
B2: Human IgE mAb 11H12 (antibody, V domains shown)
VH: QVQLVESGGDLVTPGGSLRLSCAASGFAFSGYYMSWIRQAPGKGLEWISYINSNGLTISYADSVKGRFTVSRDNAKNSLFLQMSSLRAEDTAIYYCARDWGTTLVTFDLWGQGTLVTVSS
VL: QPVLTQSSSASASMGSSAKLTCTLSSGHRGYNIAWLQQHPGKAPLYLTNLEGSDSYKNDRLTVSSSGADRYLTISNLQPEDEATYYCFTWDSDSRVFGGGTHLTVL
B3: Human IgE mAb 7G12 (antibody, V domains shown)
VH: QVHLVQSGVDVKKPGASVKLSCKTSGYTFTNYGITWVRQAPGQGLEWMGWISTYDGATNYSQNLQGRIIMTTDTSKRTAYLQMRSLRSDDTAVYYCARGRDSPDHWGQGTLVTVSS
VL: DIQMTQSPSTLSASVGDRVTITCRASQSINRWLAWYQQKPGTAPKLLIFKASTLDSGVPARFSGTGSETEFSLTINSLQPDDFATYYCQQYDHFPHTFGPGTKLDIK
B4: Human IgE mAb 1A5 (antibody, V domains shown)
VH: EVQLVESGGGVVQPGRSLRLSCAGSGFTFSTYVMHWVRQAPGKGLEWVAVISYDGTNKYYADSMKGRFTISRDNSKNTLYLQLNRLRAEDTAVYYCAKTMDDSSGYYCPDYW
VL: SSELTQDPAVSVALGQTVKITCQGDSLRNYFANWYQQKPGQAPVLVIYGQNNRPSGIPDRFSGSTSGNTGSLTITGAQAEDEADYYCNSRDSSGNHLYVFG

What was measured:
[1] = molecular target: T1, Dust mite allergen Der p 2 (dust mite (Dermatophagoides pteronyssinus)); assay: direct ELISA, Der p2 coated at 5 µg/mL, two-fold dilutions of IgE, anti-human IgE secondary, OD 450 nm
Helminth lysate [2] = assay: ELISA on helminth lysate; (++) 10-100 x background
Helminth lysate [3] = assay: direct fluorescent ELISA on helminth lysate
Helminth lysate [4] = assay: ELISA on helminth lysate; (+++) >100 x background

Binder	EC50 [1] [ng/mL]	fold over background (Helminth lysate [2]) [fold]	RFU (Helminth lysate [3]) [RFU]	fold over background (times background) (Helminth lysate [3])	fold over background (Helminth lysate [4]) [fold]
B1	7.1	–	–	–	–
B2	–	10 to 100	1000	10	–
B3	–	–	40000	–	> 100
B4	–	10 to 100	–	–	–
